In data set [1] the target is Tn5 transposase LP372 K54E (Escherichia coli (transposon Tn5)?) (UniProt Q46731). In words: cell_activity. The following applies: mutant at position 372 alone; MA56 background inferred.
Data set [2] concerns the target Tn5 transposase EK54/MA56/LP372 (in-cell assay) (Escherichia coli (transposon Tn5)?) (UniProt Q46731). The data set can be described thus: cell_activity. The conditions noted are these: at least about 100-fold transposase activity; assay substrate not detailed for this test.
Data set [3] concerns the target Tn5 transposase EK54 (with MA56, pRZ5412-EK54) P372L (Escherichia coli (transposon Tn5)?) (UniProt Q46731). The data set can be described thus: cell_activity. The following applies: mutant at position 54 alone; MA56 background inferred.
In data set [4] the target is T1, Tn5 transposase EK54/MA56/LP372 (modified, hyperactive) (Escherichia coli (transposon Tn5)?) (UniProt Q46731).
T1 sequence: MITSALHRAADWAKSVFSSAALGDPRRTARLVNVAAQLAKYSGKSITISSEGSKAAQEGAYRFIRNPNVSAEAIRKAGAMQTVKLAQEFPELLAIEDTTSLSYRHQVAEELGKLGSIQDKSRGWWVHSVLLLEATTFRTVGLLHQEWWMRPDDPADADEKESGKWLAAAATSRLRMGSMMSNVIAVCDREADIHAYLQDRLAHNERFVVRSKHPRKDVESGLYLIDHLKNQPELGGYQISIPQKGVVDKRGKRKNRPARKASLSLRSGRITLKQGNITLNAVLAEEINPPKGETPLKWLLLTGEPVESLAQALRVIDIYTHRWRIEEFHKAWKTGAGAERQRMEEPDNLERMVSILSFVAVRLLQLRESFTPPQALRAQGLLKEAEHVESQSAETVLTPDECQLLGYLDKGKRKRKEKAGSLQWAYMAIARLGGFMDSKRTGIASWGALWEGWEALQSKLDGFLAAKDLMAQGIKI
The following applies: in vitro transposition; 0.1 M K glutamate, 25 mM Tris acetate pH 7.5, 10 mM Mg acetate, 20 C 60 min then 37 C 2-3 h; underestimates total events; scale: % of plasmid-receiving cells.

The text below walks through data of patent publication US5965443.

Consider “lacZ-containing Tn5 transposable element in E. coli MDW320”, for which the transposase activity (fold activity vs wild type) was 10 in data set [1], above 100 in data set [2] and 10 in data set [3].
Regarding “pRZTL1 circular plasmid (two inverted Tn5 19 bp OE termini)”, the activity in data set [4] was 0.1.
